Measurements taken from patent US20250145711A1 (Janssen / Centocor, published 2025).

Experiments:
[1] = target: T1, TRCW5 antigen (CD3δε-Fc-Avi) (biotinylated (site not stated)); experiment: ELISA after heat
T1 construct: also called recombinant CD3

[2] = target: T2, CD3 on primary human pan T cells (human, UniProt P07766 23-207); experiment: flow cytometry, pan T-cells
T2 construct: on cells it stands in the TCR/CD3 complex; also called Pan T-cells (CD3-positive); endogenous CD3
Description: ELISA assays for binding to recombinant CD3 (TRCW5, SEQ ID NO: 39) were performed as above. Cell binding was performed using primary human T cell and Jurkat cells by flow cytometry. Briefly, E. coli expressed anti CD3 ScFv supernatants, either at room temperature, or 55° C., 60° C. or 65° C. heat treated samples.
Pan T-cells (CD3-positive) and Jurkat-CD3-negative cells were prepared by staining Jurkat-CD3-negative cells with CFSE while keeping pan T-cells unstained. Jurkat-CD3-negative cell suspensions were resuspended at 20 million cells per each 50 mL conical tube. Cells were harvested by centrifugation at 400×g for 5 minutes and resuspended in DPBS followed by washing 2× in DPBS. Cells were stained with 1:25,000 dilution for a final dye concentration of 0.02 uM CFSE (2 uL of staining solution to 50 mL of cell suspension). Cells were incubated for 10 minutes at room temperature and centrifuged for 5 minutes at 400×g. After removal of supernatant, 3 mL of HI-FBS were added to the cell pellet, mixed and centrifuged for 5 min at 400×g. Supernatant was removed and cells were resuspended in BD stain buffer at 2×10\hat{ }6 cells/mL and incubated on ice or 4 C protected from light. Human pan T cells were thawed at 37 C and transferred gently into a conical tube containing 15 mL of warm or RT culture media (RPMI+10% FBS). […] Cells were harvested by centrifugation at 400×g for 5 min and resuspended in culture media (RPMI+10% HI-FBS). Pan T-cells (without staining) were prepared at 2×10\hat{ }6 cells/mL in flow staining buffer. Equal volumes of CFSE stained Jurkat-CD3-negative cells and unstained T-cells (CD3-positive) cells were mixed and plated 50 uL/well into assay plates. 50 uL/well neat bacterial supernatant samples and control sample (CD3W36 ScFv) were added to each well and plates were incubated 1 hr at 4 C or. Cells were harvested by centrifugation at 400×g for 4 min and 150 uL staining buffer were added to all wells, followed by centrifugation at 400×g for 4 min to pellet cells. To each well, 150 uL staining buffer were added followed by centrifugation at 400×g for 4 minutes to pellet cells.

T2 sequence (P07766 23-207 limits assumed): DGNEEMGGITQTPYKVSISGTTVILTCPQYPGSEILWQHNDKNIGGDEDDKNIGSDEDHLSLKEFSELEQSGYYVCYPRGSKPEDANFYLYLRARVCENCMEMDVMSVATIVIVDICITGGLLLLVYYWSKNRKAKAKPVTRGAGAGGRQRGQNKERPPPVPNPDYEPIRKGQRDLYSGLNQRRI
T1 sequence (chain, as listed by the source mutant limits assumed): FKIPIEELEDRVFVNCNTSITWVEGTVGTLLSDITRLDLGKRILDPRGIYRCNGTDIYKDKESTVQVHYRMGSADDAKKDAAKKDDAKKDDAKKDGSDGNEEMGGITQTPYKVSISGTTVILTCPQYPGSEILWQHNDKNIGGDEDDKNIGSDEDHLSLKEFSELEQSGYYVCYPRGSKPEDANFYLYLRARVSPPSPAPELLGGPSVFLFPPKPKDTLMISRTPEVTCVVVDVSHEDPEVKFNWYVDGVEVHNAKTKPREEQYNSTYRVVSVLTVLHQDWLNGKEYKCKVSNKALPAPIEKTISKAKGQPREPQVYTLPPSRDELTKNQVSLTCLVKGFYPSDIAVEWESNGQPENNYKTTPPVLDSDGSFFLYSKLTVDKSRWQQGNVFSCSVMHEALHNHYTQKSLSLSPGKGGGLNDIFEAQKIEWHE

Row | % Retained 55° C. [1] [%] | % Retained 60° C. [1] [%] | % Retained 65° C. [1] [%] | % Binding retained on T-cells, 55° C. [2] [fraction] | % Binding retained on T-cells, 60° C. [2] [fraction] | % Binding retained on T-cells, 65° C. [2] [fraction] | % Binding retained on T-cells, RT [2] [fraction] | Binder
1 | 108 | 92 | 11 | 1 | 0.996 | 0.185 | 1 | CD3B2063 (scFv) scFv: QVQLVQSGAEVKKPGSSVKVSCKASGYTFTRSTMHWVKQAPGQGLEWIGYINPSSAYTNYAQKFQGRVTLTADKSTSTAYMELSSLRSEDTAVYYCASPQVHYDYNGFPYWGQGTLVTVSSGGSEGKSSGSGSESKSTGGSEIVLTQSPATLSASPGERVTLSCSASSSVSYMNWYQQKPGTAPRRLIYDSSKLASGVPARFSGSGSGRDYTLTISSLEPEDFAVYYCQQWSRNPPTFGGGTKVEIK
2 | 111 | 105 | 28 | 1.05 | 0.997 | 0.296 | 1 | CD3B2045 (scFv) scFv: QVQLVQSGAEVKKPGSSVKVSCKASGYTFTRSTMHWVRQAPGQGLEWIGYINPSSAYTNYNQKFQGRVTLTADKSTSTAYMELSSLRSEDTAVYYCASPQVHYDYNGFPYWGQGTLVTVSSGGSEGKSSGSGSESKSTGGSEIVLTQSPATLSASPGERVTLSCSASSSVSYMNWYQQKPGQAPRRWIYDSSKLASGVPARFSGSGSGRDYTLTISSLEPEDFAVYYCQQWSRNPPTFGGGTKVEIK
3 | 100 | 88 | 4 | 0.991 | 0.906 | 0.0805 | 1 | CD3B2043 (scFv) scFv: QVQLVQSGAEVKKPGSSVKVSCKASGYTFTRSTMHWVRQAPGQGLEWIGYINPSSAYTNYNQKFQGRVTLTADKSTSTAYMELSSLRSEDTAVYYCASPQVHYDYNGFPYWGQGTLVTVSSGGSEGKSSGSGSESKSTGGSEIVLTQSPATLSASPGERVTLSCSASSSVSYMNWYQQKPGTAPRRLIYDSSKLASGVPARFSGSGSGRDYTLTISSLEPEDFAVYYCQQWSRNPPTFGGGTKVEIK
4 | 96 | 83 | 2 | 0.993 | 0.935 | 0.0842 | 1 | CD3B2042 (scFv) scFv: QVQLVQSGAEVKKPGSSVKVSCKASGYTFTRSTMHWVRQAPGQGLEWIGYINPSSAYTNYNQKFQGRVTLTADKSTSTAYMELSSLRSEDTAVYYCASPQVHYDYNGFPYWGQGTLVTVSSGGSEGKSSGSGSESKSTGGSEIVLTQSPATLSASPGERVTLSCSASSSVSYMNWYQQKPGTSPRRLIYDSSKLASGVPARFSGSGSGRDYTLTISSLEPEDFAVYYCQQWSRNPPTFGGGTKVEIK
5 | 112 | 110 | 20 | 1.05 | 0.808 | 0.174 | 1 | CD3B2058 (scFv) scFv: QVQLVQSGAEVKKPGSSVKVSCKASGYTFTRSTMHWVKQAPGQGLEWIGYINPSSAYTNYAQKFQGRVTLTADKSTSTAYMELSSLRSEDTAVYYCASPQVHYDYNGFPYWGQGTLVTVSSGGSEGKSSGSGSESKSTGGSEIVLTQSPATLSASPGERVTLSCSASSSVSYMNWYQQKPGTSPRRWIYDSSKLASGVPARFSGSGSGRDYTLTISSLEPEDFAVYYCQQWSRNPPTFGGGTKVEIK
6 | 103 | 102 | 14 | 0.786 | 1.04 | 0.198 | 1 | CD3B2044 (scFv) scFv: QVQLVQSGAEVKKPGSSVKVSCKASGYTFTRSTMHWVRQAPGQGLEWIGYINPSSAYTNYNQKFQGRVTLTADKSTSTAYMELSSLRSEDTAVYYCASPQVHYDYNGFPYWGQGTLVTVSSGGSEGKSSGSGSESKSTGGSEIVLTQSPATLSASPGERVTLSCSASSSVSYMNWYQQKPGQSPRRWIYDSSKLASGVPARFSGSGSGRDYTLTISSLEPEDFAVYYCQQWSRNPPTFGGGTKVEIK
7 | 111 | 107 | 33 | 1.17 | 0.741 | 0.241 | 1 | CD3B2064 (scFv) scFv: QVQLVQSGAEVKKPGSSVKVSCKASGYTFTRSTMHWVKQAPGQGLEWIGYINPSSAYTNYAQKFQGRVTLTADKSTSTAYMELSSLRSEDTAVYYCASPQVHYDYNGFPYWGQGTLVTVSSGGSEGKSSGSGSESKSTGGSEIVLTQSPATLSASPGERVTLSCSASSSVSYMNWYQQKPGQSPRRWIYDSSKLASGVPARFSGSGSGRDYTLTISSLEPEDFAVYYCQQWSRNPPTFGGGTKVEIK

More lines, now with the values behind:

Row | Binder | % Retained 55° C. [1] [%] | % Retained 60° C. [1] [%] | % Retained 65° C. [1] [%] | % Binding retained on T-cells, 55° C. [2] [fraction] | % Binding retained on T-cells, 60° C. [2] [fraction] | % Binding retained on T-cells, 65° C. [2] [fraction] | % Binding retained on T-cells, RT [2] [fraction]
8 | CD3B2034 (scFv) scFv: QVQLVQSGAEVKKPGSSVKVSCKASGYTFTRSTMHWVKQAPGQGLEWMGYINPSSAYTNYNQKFQGRVTLTADKSTSTAYMELSSLRSEDTAVYYCASPQVHYDYNGFPYWGQGTLVTVSSGGSEGKSSGSGSESKSTGGSEIVLTQSPATLSASPGERVTLSCSASSSVSYMNWYQQKPGQSPRRWIYDSSKLASGVPARFSGSGSGRDYTLTISSLEPEDFAVYYCQQWSRNPPTFGGGTKVEIK | 103 | 103 | 38 | 0.866 | 0.784 | 0.387 | 1
9 | CD3B2039 (scFv) scFv: QVQLVQSGAEVKKPGSSVKVSCKASGYTFTRSTMHWVKQAPGQGLEWMGYINPSSAYTNYAQKFQGRVTLTADKSTSTAYMELSSLRSEDTAVYYCASPQVHYDYNGFPYWGQGTLVTVSSGGSEGKSSGSGSESKSTGGSEIVLTQSPATLSASPGERVTLSCSASSSVSYMNWYQQKPGQSPRRWIYDSSKLASGVPARFSGSGSGRDYTLTISSLEPEDFAVYYCQQWSRNPPTFGGGTKVEIK | 111 | 103 | 44 | 1.3 | 1 | 0.609 | 1
10 | CD3B2041 (scFv) scFv: QVQLVQSGAEVKKPGSSVKVSCKASGYTFTRSTMHWVRQAPGQGLEWIGYINPSSAYTNYNQKFQGRVTLTADKSTSTAYMELSSLRSEDTAVYYCASPQVHYDYNGFPYWGQGTLVTVSSGGSEGKSSGSGSESKSTGGSEIVLTQSPATLSASPGERVTLSCSASSSVSYMNWYQQKPGTAPRRWIYDSSKLASGVPARFSGSGSGRDYTLTISSLEPEDFAVYYCQQWSRNPPTFGGGTKVEIK | 104 | 97 | 16 | 1.06 | 1.11 | 0.447 | 1
11 | CD3B2037 (scFv) scFv: QVQLVQSGAEVKKPGSSVKVSCKASGYTFTRSTMHWVKQAPGQGLEWMGYINPSSAYTNYAQKFQGRVTLTADKSTSTAYMELSSLRSEDTAVYYCASPQVHYDYNGFPYWGQGTLVTVSSGGSEGKSSGSGSESKSTGGSEIVLTQSPATLSASPGERVTLSCSASSSVSYMNWYQQKPGTSPRRLIYDSSKLASGVPARFSGSGSGRDYTLTISSLEPEDFAVYYCQQWSRNPPTFGGGTKVEIK | 102 | 103 | 23 | 1.07 | 0.986 | 0.061 | 1
12 | CD3B2038 (scFv) scFv: QVQLVQSGAEVKKPGSSVKVSCKASGYTFTRSTMHWVKQAPGQGLEWMGYINPSSAYTNYAQKFQGRVTLTADKSTSTAYMELSSLRSEDTAVYYCASPQVHYDYNGFPYWGQGTLVTVSSGGSEGKSSGSGSESKSTGGSEIVLTQSPATLSASPGERVTLSCSASSSVSYMNWYQQKPGTAPRRLIYDSSKLASGVPARFSGSGSGRDYTLTISSLEPEDFAVYYCQQWSRNPPTFGGGTKVEIK | 105 | 98 | 22 | 1.03 | 1.1 | 0.279 | 1
